Key:
Assay in all cases: cell-based or functional assay
[1] = molecular target: HIV-1 APV13 Env (pseudovirus) (HIV-1)
[2] = molecular target: HIV-1 APV13 Env (pseudovirus, clade B) (HIV-1)
[3] = molecular target: HIV-1 Env of isolate APV_13 (subtype B pseudovirus) (HIV-1)
[4] = molecular target: HIV-1 Env of isolate MGRM-AG-012 (HIV-1)
[5] = molecular target: HIV-1 Env of isolate MGRM-Chronic-B-004 (subtype B pseudovirus) (HIV-1)
[6] = molecular target: HIV-1 Env of isolate MGRM-Chronic-B-012 (subtype B pseudovirus) (HIV-1)
[7] = molecular target: HIV-1 Env of isolate MGRM-Chronic-B-023 (subtype B pseudovirus) (HIV-1)
[8] = molecular target: HIV-1 Env of isolate MGRM-D-003 (pseudovirus) (HIV-1)
[9] = molecular target: HIV-1 Env of isolate MGRM-D-013 (pseudovirus) (HIV-1)
[10] = molecular target: HIV-1 Env of isolate MGRM-D-020 (pseudovirus) (HIV-1)
[11] = molecular target: HIV-1 Env of isolate MGRM-D-024 (pseudovirus) (HIV-1)
[12] = molecular target: HIV-1 Env of isolate MGRM-F1-013 (HIV-1)
[13] = molecular target: HIV-1 Env of isolate MGRM-F1-016 (HIV-1)
[14] = molecular target: HIV-1 Env of isolate NL43 (subtype B pseudovirus) (HIV-1)
[15] = molecular target: HIV-1 MGRM-AG-005 Env (pseudovirus) (HIV-1)
[16] = molecular target: HIV-1 Env of isolate 92WR026 (HIV-1)
[17] = molecular target: HIV-1 Env of isolate 93TH305 (HIV-1)
[18] = molecular target: HIV-1 Env of isolate APV-13 (HIV-1)
[19] = molecular target: HIV-1 Env of isolate MG RM-D-021 (HIV-1)
[20] = molecular target: HIV-1 Env of isolate MGRM-A-002 (HIV-1)
[21] = molecular target: HIV-1 Env of isolate MGRM-A-005 (HIV-1)
[22] = molecular target: HIV-1 Env of isolate MGRM-A-009 (subtype A) (HIV-1)
[23] = molecular target: HIV-1 Env of isolate MGRM-AE-002 (subtype AE) (HIV-1)
[24] = molecular target: HIV-1 Env of isolate MGRM-Chronic-B-024 (subtype B) (HIV-1)
[25] = molecular target: HIV-1 Env of isolate SF162 (subtype B) (HIV-1) (UniProt P19550)
[26] = molecular target: HIV-1 envelope glycoprotein (Env) of isolate MGRM-C-007 (HIV-1)
[27] = molecular target: HIV-1 envelope glycoprotein (Env) of isolate MGRM-C-015 (HIV-1)
[28] = molecular target: HIV-1 envelope glycoprotein (Env) of isolate MGRM-C-026 (HIV-1)
[29] = molecular target: HIV-1 Env of isolate MGRM-G-004 (HIV-1)
[30] = molecular target: HIV-1 Env of isolate MGRM-G-017 (HIV-1)

Sequence of 5345_I01 (PGT-137) (antibody) (VH): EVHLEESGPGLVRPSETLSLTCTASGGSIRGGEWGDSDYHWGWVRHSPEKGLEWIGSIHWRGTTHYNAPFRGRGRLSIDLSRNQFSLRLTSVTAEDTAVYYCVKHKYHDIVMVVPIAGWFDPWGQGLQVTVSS
Sequence of 5345_I01 (PGT-137) (antibody) (VL): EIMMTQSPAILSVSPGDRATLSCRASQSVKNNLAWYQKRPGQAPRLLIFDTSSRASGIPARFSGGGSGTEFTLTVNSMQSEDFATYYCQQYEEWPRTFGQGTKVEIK
Sequence of 4993_K13 (PGT-141) (antibody) (VH): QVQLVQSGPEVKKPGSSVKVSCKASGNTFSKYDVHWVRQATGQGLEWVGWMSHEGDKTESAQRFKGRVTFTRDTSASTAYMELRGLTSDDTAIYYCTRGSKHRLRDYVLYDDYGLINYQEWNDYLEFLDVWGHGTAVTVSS
Sequence of 4993_K13 (PGT-141) (antibody) (VL): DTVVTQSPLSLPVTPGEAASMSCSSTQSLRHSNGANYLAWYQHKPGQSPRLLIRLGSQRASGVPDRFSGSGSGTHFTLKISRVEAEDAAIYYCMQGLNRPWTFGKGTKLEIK

| Substance | IC50 neutralization [2] [µg/mL] | IC50 (µg/mL), pseudovirus neutralization [3] [µg/mL] | IC50 [4] [µg/mL] | IC50 (µg/mL), pseudovirus neutralization [5] [µg/mL] | IC50 (µg/mL), pseudovirus neutralization [6] [µg/mL] | IC50 (µg/mL), pseudovirus neutralization [7] [µg/mL] | IC50, pseudovirus neutralization [8] [µg/mL] | IC50 [16] [µg/mL] | neutralization IC50 [17] [µg/mL] | neutralization IC50 [18] [µg/mL] | IC50 (µg/mL), pseudovirus neutralization [19] [µg/mL] | IC50 [20] [µg/mL] | IC50 [21] [µg/mL] | IC50 (µg/mL), pseudovirus neutralization [22] [µg/mL] | IC50 (µg/mL), pseudovirus neutralization [23] [µg/mL] | IC50 neutralization [24] [µg/mL] | IC50 neutralization [25] [µg/mL] | IC50 (µg/mL), pseudovirus neutralization [26] [µg/mL] | IC50 (µg/mL), pseudovirus neutralization [27] [µg/mL] | IC50 (µg/mL), pseudovirus neutralization [28] [µg/mL] | other results |
| --- | --- | --- | --- | --- | --- | --- | --- | --- | --- | --- | --- | --- | --- | --- | --- | --- | --- | --- | --- | --- | --- |
| 5123_A06 (PGT-125) (antibody) | 0.0128 | 0.007 | > 50 | 0.007 | 0.036 | > 50 | 0.065 |  |  |  |  |  |  |  |  |  |  |  |  |  | neutralization IC50 (pseudovirus) [1]: 0.0128 µg/mL; IC50, pseudovirus neutralization [9]: > 50 µg/mL; IC50, pseudovirus neutralization [10]: > 50 µg/mL; IC50, pseudovirus neutralization [11]: > 50 µg/mL; IC50 (µg/mL), pseudovirus neutralization [12]: > 50 µg/mL; IC50 (µg/mL), pseudovirus neutralization [13]: > 50 µg/mL; IC50 (µg/mL), pseudovirus neutralization [14]: > 50 µg/mL; neutralization IC50 (pseudovirus) [15]: > 10 µg/mL |
| 5147_N06 (PGT-130) (antibody) | 0.0345 |  |  |  |  |  |  | 0.037 | 0.021 | 0.052 | 0.156 | 0.01 | > 50 | 0.308 | 1.53 | 5.78 | 0.007 | > 50 | 0.344 | 0.036 | Neutralization by PGT-130, IC50 [1]: 0.0345 µg/mL; Neutralization by PGT-130, IC80 [1]: 0.573 µg/mL; Neutralization by PGT-130, IC90 [1]: 2.88 µg/mL; Neutralization by PGT-130, IC95 [1]: > 10 µg/mL; neutralization IC50 (pseudovirus) [1]: 0.0345 µg/mL; Neutralization by PGT-130, IC50 [15]: 0.947 µg/mL; Neutralization by PGT-130, IC80 [15]: > 10 µg/mL; Neutralization by PGT-130, IC90 [15]: > 10 µg/mL; Neutralization by PGT-130, IC95 [15]: > 10 µg/mL; neutralization IC50 (pseudovirus) [15]: 0.947 µg/mL |
| 5136_H01 (PGT-131) (antibody) |  |  |  |  |  |  |  | 0.041 | 0.016 | 0.189 | 0.106 | > 50 | > 50 | 0.035 | > 50 | > 50 | 0.025 | > 50 | 1.01 | 1.67 |  |
| 4993_K13 (PGT-141) (antibody) |  |  |  |  |  |  |  |  |  |  |  |  |  |  | > 50 |  |  |  |  |  | IC50 (neutralizing activity, pseudovirus) [1]: > 10 µg/mL; IC50 (µg/mL), pseudovirus neutralization [29]: > 50 µg/mL; IC50 (µg/mL), pseudovirus neutralization [30]: 0.164 µg/mL; IC50 (neutralizing activity, pseudovirus) [15]: 0.392 µg/mL |
| 4838_L06 (PGT-121) (antibody) |  | 0.251 | > 50 | 0.009 | 0.036 | 0.005 | 10.7 |  |  |  |  |  |  |  |  |  |  |  |  |  | IC50, pseudovirus neutralization [9]: > 50 µg/mL; IC50, pseudovirus neutralization [10]: 0.01 µg/mL; IC50, pseudovirus neutralization [11]: 0.038 µg/mL; IC50 (µg/mL), pseudovirus neutralization [12]: 0.083 µg/mL; IC50 (µg/mL), pseudovirus neutralization [13]: 0.931 µg/mL; IC50 (µg/mL), pseudovirus neutralization [14]: > 50 µg/mL |
| 5145_B14 (PGT-127) (antibody) |  | 0.026 | > 50 | 0.018 | 0.075 | > 50 | 0.029 |  |  |  |  |  |  |  |  |  |  |  |  |  | IC50, pseudovirus neutralization [9]: > 50 µg/mL; IC50, pseudovirus neutralization [10]: 0.015 µg/mL; IC50, pseudovirus neutralization [11]: 1.95 µg/mL; IC50 (µg/mL), pseudovirus neutralization [12]: > 50 µg/mL; IC50 (µg/mL), pseudovirus neutralization [13]: > 50 µg/mL; IC50 (µg/mL), pseudovirus neutralization [14]: > 50 µg/mL |
| 5343_B08 (PGT-135) (antibody) | 0.545 |  |  |  |  |  |  | 0.068 | > 50 | 0.716 | > 50 | > 50 | > 50 | > 50 | > 50 | > 50 | 0.023 | > 50 | 0.104 | 0.004 | IC50 (neutralizing activity, pseudovirus) [1]: 0.545 µg/mL; IC50 (neutralizing activity, pseudovirus) [15]: > 10 µg/mL |
| 5345_I01 (PGT-137) (antibody) |  |  |  |  |  |  |  | 0.092 | > 50 | > 50 | > 50 | > 50 | > 50 | > 50 | > 50 | > 50 | 3.41 | > 50 | 1.98 | 0.011 |  |

— patent publication US20250320281A1
